Experiment [1] deals with Protein A domain D. Kind of experiment: ELISA. The settings on record: chain shown with the change;; parent: 7.5 nM.
The target in experiment [2] is Protein A domain D. Kind of experiment: BLI. The settings on record: chain shown with the change;; parent: 35.3 nM.

Consider nine molecules from PMC12572175.

B1: sdAb n501 R95A (protein)
chain: EVQLVESGGGLVQPGGSLRLSCAASDFTFRNYEMSWVRQAPGKGLEWVSSISGSGGSTYYAHSLKGRFTISRDNSKNTLYLQMNSLAAEDTAIYYCARLRDGFNNGFDYWGQGTLVTVSS
In general, EC50 refers to the concentration needed to bring the measured effect to its halfway point. A word on the Kd: it is the concentration at which binding is half-saturated. In the case of B1, the half-maximal effective concentration (EC50) with Protein A domain D [1] is 0.404 µM. Besides, in the experiment with Protein A domain D [2], the Kd was 0.431 µM.

B2: sdAb n501 T77A (protein)
chain: EVQLVESGGGLVQPGGSLRLSCAASDFTFRNYEMSWVRQAPGKGLEWVSSISGSGGSTYYAHSLKGRFAISRDNSKNTLYLQMNSLRAEDTAIYYCARLRDGFNNGFDYWGQGTLVTVSS
Turning to B2, the EC50 with Protein A domain D [1] came to 0.2 µM.

B3: sdAb n501 S18A (protein)
chain: EVQLVESGGGLVQPGGALRLSCAASDFTFRNYEMSWVRQAPGKGLEWVSSISGSGGSTYYAHSLKGRFTISRDNSKNTLYLQMNSLRAEDTAIYYCARLRDGFNNGFDYWGQGTLVTVSS
For B3, the EC50 in the experiment with Protein A domain D [1] came out at 0.709 µM. Also, in the experiment with Protein A domain D [2], the Kd is 0.136 µM.

B4: sdAb n501 G16A (protein)
chain: EVQLVESGGGLVQPAGSLRLSCAASDFTFRNYEMSWVRQAPGKGLEWVSSISGSGGSTYYAHSLKGRFTISRDNSKNTLYLQMNSLRAEDTAIYYCARLRDGFNNGFDYWGQGTLVTVSS
B4: the EC50 in the experiment with Protein A domain D [1] turned out to be 0.092 µM. In the experiment with Protein A domain D [2], the Kd came out at 0.0963 µM.

B5: sdAb n501 T65A (protein)
chain: EVQLVESGGGLVQPGGSLRLSCAASDFTFRNYEMSWVRQAPGKGLEWVSSISGSGGSAYYAHSLKGRFTISRDNSKNTLYLQMNSLRAEDTAIYYCARLRDGFNNGFDYWGQGTLVTVSS
As for B5, the Kd with Protein A domain D [2] stood at 1.03 µM.

B6: sdAb n501 S79A (protein)
chain: EVQLVESGGGLVQPGGSLRLSCAASDFTFRNYEMSWVRQAPGKGLEWVSSISGSGGSTYYAHSLKGRFTIARDNSKNTLYLQMNSLRAEDTAIYYCARLRDGFNNGFDYWGQGTLVTVSS
As to B6, the EC50 with Protein A domain D [1] was found to be 0.245 µM. Moreover, in the experiment with Protein A domain D [2], the Kd turned out to be 0.372 µM.

B7: sdAb n501 N92A (protein)
chain: EVQLVESGGGLVQPGGSLRLSCAASDFTFRNYEMSWVRQAPGKGLEWVSSISGSGGSTYYAHSLKGRFTISRDNSKNTLYLQMASLRAEDTAIYYCARLRDGFNNGFDYWGQGTLVTVSS
B7: the EC50 with Protein A domain D [1] came to 0.151 µM.

B8: sdAb n501 Y67A (protein)
chain: EVQLVESGGGLVQPGGSLRLSCAASDFTFRNYEMSWVRQAPGKGLEWVSSISGSGGSTYAAHSLKGRFTISRDNSKNTLYLQMNSLRAEDTAIYYCARLRDGFNNGFDYWGQGTLVTVSS
Turning to B8, the EC50 with Protein A domain D [1] was 0.162 µM.

B9: sdAb n501 K72A (protein)
chain: EVQLVESGGGLVQPGGSLRLSCAASDFTFRNYEMSWVRQAPGKGLEWVSSISGSGGSTYYAHSLAGRFTISRDNSKNTLYLQMNSLRAEDTAIYYCARLRDGFNNGFDYWGQGTLVTVSS
Take B9: the EC50 with Protein A domain D [1] is 0.685 µM. Further, the Kd with Protein A domain D [2] was 1.36 µM.
